Data on seven sequences can be found in the supplement of paper PMC5998384.

This data set deals with HeLa Kyoto. Kind of data set: thermal stability score vs G1/S (z-score of summed log2 fold changes over temperatures); higher = more thermally stable than in G1/S.
[1] abbreviates: cell cycle stage: early G1 (4.5 h after nocodazole release).
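Also: synchronized HeLa Kyoto cells, proteins quantified by TMT10plex mass spectrometry, three biological replicates, mitosis taken 0.5 h after nocodazole release, G1/S directly after double thymidine block.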

Take “MAAAVAAALARLLAAFLLLAAQVACEYGMVHVVSQAGGPEGKDYCILYNPQWAHLPHDLSKASFLQLRNWTASLLCSAADLPARGFSNQIPLVARGNCTFYEKVRLAQGSGARGLLIVSRERLVPPGGNKTQYDEIGIPVALLSYKDMLDIFTRFGRTVRAALYAPKEPVLDYNMVIIFIMAVGTVAIGGYWAGSRDVKKRYMKHKRDDGPEKQEDEAVDVTPVMTCVFVVMCCSMLVLLYYFYDLLVYVVIGIFCLASATGLYSCLAPCVRRLPFGKCRIPNNSLPYFHKRPQARMLLLALFCVAVSVVWGVFRNEDQWAWVLQDALGIAFCLYMLKTIRLPTFKACTLLLLVLFLYDIFFVFITPFLTKSGSSIMVEVATGPSDSATREKLPMVLKVPRLNSSPLALCDRPFSLLGFGDILVPGLLVAYCHRFDIQVQSSRVYFVACTIAYGVGLLVTFVALALMQRGQPALLYLVPCTLVTSCAVALWRRELGVFWTGSGFAKVLPPSPWAPAPADGPQPPKDSATPLSPQPPSEEPATSPWPAEQSPKSRTSEEMGAGAPMREPGSPAESEGRDQAQPSPVTQPGASA [SPPL2B]”: the thermal stability score is 0.962 under setting [1] and -2.37 (cell cycle stage: mitosis).

For “MAAQGEPGYLAAQSDPGSNSERSTDSPVPGSEDDLVAGATLHSPEWSEERFRVDRKKLEAMLQAAAEGKGRSGEDFFQKIMEETNTQIAWPSKLKIGAKSKKDPHIKVSGKKEDVKEAKEMIMSVLDTKSNRVTLKMDVSHTEHSHVIGKGGNNIKKVMEETGCHIHFPDSNRNNQAEKSNQVSIAGQPAGVESARVRIRELLPLVLMFELPIAGILQPVPDPNSPSIQHISQTYNISVSFKQRSRMYGATVIVRGSQNNTSAVKEGTAMLLEHLAGSLASAIPVSTQLDIAAQHHLFMMGRNGSNIKHIMQRTGAQIHFPDPSNPQKKSTVYLQGTIESVCLARQYLMGCLPLVLMFDMKEEIEVDPQFIAQLMEQLDVFISIKPKPKQPSKSVIVKSVERNALNMYEARKCLLGLESSGVTIATSPSPASCPAGLACPSLDILASAGLGLTGLGLLGPTTLSLNTSTTPNSLLNALNSSVSPLQSPSSGTPSPTLWAPPLANTSSATGFSAIPHLMIPSTAQATLTNILLSGVPTYGHTAPSPPPGLTPVDVHINSMQTEGKKISAALNGHAQSPDIKYGAISTSSLGEKVLSANHGDPSIQTSGSEQTSPKSSPTEGCNDAFVEVGMPRSPSHSGNAGDLKQMMCPSKVSCAKRQTVELLQGTKNSHLHSTDRLLSDPELSATESPLADKKAPGSERAAERAAAAQQNSERAHLAPRSSYVNMQAFDYEQKKLLATKAMLKKPVVTEVRTPTNTWSGLGFSKSMPAETIKELRRANHVSYKPTMTTTYEGSSMSLSRSNSREHLGGGSESDNWRDRNGIGPGSHSEFAASIGSPKRKQNKSTEHYLSSSNYMDCISSLTGSNGCNLNSSFKGSDLPELFSKLGLGKYTDVFQQQEIDLQTFLTLTDQDLKELGITTFGARRKMLLAISELNKNRRKLFESPNARTSFLEGGASGRLPRQYHSDIASVSGRW [BICC1]”, the thermal stability score reads like this: under setting [1], -0.0285; (cell cycle stage: mitosis) 0.296.

For the sequence “MALCEAAGCGSALLWPRLLLFGDSITQFSFQQGGWGASLADRLVRKCDVLNRGFSGYNTRWAKIILPRLIRKGNSLDIPVAVTIFFGANDSALKDENPKQHIPLEEYAANLKSMVQYLKSVDIPENRVILITPTPLCETAWEEQCIIQGCKLNRLNSVVGEYANACLQVAQDCGTDVLDLWTLMQDSQDFSSYLSDGLHLSPKGNEFLFSHLWPLIEKKVSSLPLLLPYWRDVAEAKPELSLLGDGDH [IAH1]”, the thermal stability score under setting [1] came out at 0.993 and the thermal stability score (cell cycle stage: mitosis) was -0.17.

In the case of “MDDSGELGGLETMETLTELGDELTLGDIDEMLQFVSNQVGEFPDLFSEQLCSSFPGSGGSGSSSGSSGSSSSSSNGRGSSSGAVDPSVQRSFTQVTLPSFSPSAASPQAPTLQVKVSPTSVPTTPRATPILQPRPQPQPQPQTQLQQQTVMITPTFSTTPQTRIIQQPLIYQNAATSFQVLQPQVQSLVTSSQVQPVTIQQQVQTVQAQRVLTQTANGTLQTLAPATVQTVAAPQVQQVPVLVQPQIIKTDSLVLTTLKTDGSPVMAAVQNPALTALTTPIQTAALQVPTLVGSSGTILTTMPVMMGQEKVPIKQVPGGVKQLEPPKEGERRTTHNIIEKRYRSSINDKIIELKDLVMGTDAKMHKSGVLRKAIDYIKYLQQVNHKLRQENMVLKLANQKNKLLKGIDLGSLVDNEVDLKIEDFNQNVLLMSPPASDSGSQAGFSPYSIDSEPGSPLLDDAKVKDEPDSPPVALGMVDRSRILLCVLTFLCLSFNPLTSLLQWGGAHDSDQHPHSGSGRSVLSFESGSGGWFDWMMPTLLLWLVNGVIVLSVFVKLLVHGEPVIRPHSRSSVTFWRHRKQADLDLARGDFAAAAGNLQTCLAVLGRALPTSRLDLACSLSWNVIRYSLQKLRLVRWLLKKVFQCRRATPATEAGFEDEAKTSARDAALAYHRLHQLHITGKLPAGSACSDVHMALCAVNLAECAEEKIPPSTLVEIHLTAAMGLKTRCGGKLGFLASYFLSRAQSLCGPEHSAVPDSLRWLCHPLGQKFFMERSWSVKSAAKESLYCAQRNPADPIAQVHQAFCKNLLERAIESLVKPQAKKKAGDQEEESCEFSSALEYLKLLHSFVDSVGVMSPPLSRSSVLKSALGPDIICRWWTSAITVAISWLQGDDAAVRSHFTKVERIPKALEVTESPLVKAIFHACRAMHASLPGKADGQQSSFCHCERASGHLWSSLNVSGATSDPALNHVVQLLTCDLLLSLRTALWQKQASASQAVGETYHASGAELAGFQRDLGSLRRLAHSFRPAYRKVFLHEATVRLMAGASPTRTHQLLEHSLRRRTTQSTKHGEVDAWPGQRERATAILLACRHLPLSFLSSPGQRAVLLAEAARTLEKVGDRRSCNDCQQMIVKLGGGTAIAAS [SREBF2]”, the thermal stability score reads like this: under setting [1], 7.8e-18; (cell cycle stage: mitosis) 1.52e-16.

On to “MGAALGTGTRLAPWPGRACGALPRWTPTAPAQGCHSKPGPARPVPLKKRGYDVTRNPHLNKGMAFTLEERLQLGIHGLIPPCFLSQDVQLLRIMRYYERQQSDLDKYIILMTLQDRNEKLFYRVLTSDVEKFMPIVYTPTVGLACQHYGLTFRRPRGLFITIHDKGHLATMLNSWPEDNIKAVVVTDGERILGLGDLGCYGMGIPVGKLALYTACGGVNPQQCLPVLLDVGTNNEELLRDPLYIGLKHQRVHGKAYDDLLDEFMQAVTDKFGINCLIQFEDFANANAFRLLNKYRNKYCMFNDDIQGTASVAVAGILAALRITKNKLSNHVFVFQGAGEAAMGIAHLLVMALEKEGVPKAEATRKIWMVDSKGLIVKGRSHLNHEKEMFAQDHPEVNSLEEVVRLVKPTAIIGVAAIAGAFTEQILRDMASFHERPIIFALSNPTSKAECTAEKCYRVTEGRGIFASGSPFKSVTLEDGKTFIPGQGNNAYVFPGVALGVIAGGIRHIPDEIFLLTAEQIAQEVSEQHLSQGRLYPPLSTIRDVSLRIAIKVLDYAYKHNLASYYPEPKDKEAFVRSLVYTPDYDSFTLDSYTWPKEAMNVQTV [ME3]”, for which the thermal stability score by setting is: under setting [1], -5.4; (cell cycle stage: mitosis) -4.14.

As for “MKSLVLLLCLAQLWGCHSAPHGPGLIYRQPNCDDPETEEAALVAIDYINQNLPWGYKHTLNQIDEVKVWPQQPSGELFEIEIDTLETTCHVLDPTPVARCSVRQLKEHAVEGDCDFQLLKLDGKFSVVYAKCDSSPDSAEDVRKVCQDCPLLAPLNDTRVVHAAKAALAAFNAQNNGSNFQLEEISRAQLVPLPPSTYVEFTVSGTDCVAKEATEAAKCNLLAEKQYGFCKATLSEKLGGAEVAVTCMVFQTQPVSSQPQPEGANEAVPTPVVDPDAPPSPPLGAPGLPPAGSPPDSHVLLAAPPGHQLHRAHYDLRHTFMGVVSLGSPSGEVSHPRKTRTVVQPSVGAAAGPVVPPCPGRIRHFKV [AHSG]”, the thermal stability score was -0.0372 under setting [1] and -0.632 (cell cycle stage: mitosis).

As for “MNCRSEVLEVSVEGRQVEEAMLAVLHTVLLHRSTGKFHYKKEGTYSIGTVGTQDVDCDFIDFTYVRVSSEELDRALRKVVGEFKDALRNSGGDGLGQMSLEFYQKKKSRWPFSDECIPWEVWTVKVHVVALATEQERQICREKVGEKLCEKIINIVEVMNRHEYLPKMPTQSEVDNVFDTGLRDVQPYLYKISFQITDALGTSVTTTMRRLIKDTLAL [ATG101]”, the thermal stability score came out at 0.111 under setting [1] and 1.17 (cell cycle stage: mitosis).
